Reference: the nanobody polyreactivity screen of Harvey et al. (2022)

Experiment: yeast display, Sf9 membrane polyspecificity reagent, FACS + sequencing; frameworks hold sequencing errors
Summary of the method: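 Polyreactivity labels are assigned by the sorting gate from which each nanobody was recovered. The gates were low and high (top ~1%), set on anti-HA fluorescence for expression and streptavidin fluorescence for reagent binding. Before sorting, galactose-induced (36–48 hours) yeast display cells were stained for 1 hour at 4 °C with 10% biotinylated, detergent-solubilized Sf9 membrane reagent.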
For “QVQLLESGGGLVQAGGSLRLSCAASGGTFPQYAMGWYRKAPGKERELVAVNTRSGRTNYADTVKARFTISRDNAKNTVYVQMNSLKPEDTAVYYCNADEVDDEVSPDLTEMDYWGQGTQVTVSS”, the “polyreactivity (PSR sort gate)” value was “low polyreactivity”.
In the case of “QVQLLESGGGLVQAGGSLRLSCAASGLIMVYYTMGWYRQAPGKERELVASISKSGGRTYYADSVKGRFTISRDNAKNTVYLQMNSLKPEDTAVYYCAAQRVQYSRRDYWGQGTQVTVSS”, the “polyreactivity (PSR sort gate)” value is reported as “high polyreactivity”.
In the case of “QVQLLESGGGLVQAGGSLRLSCAASGLTVYGYVMAWYRHAPGKERELVASISRSGCRTYYADSVKGRFTISRDNEKNTVYLQMNSLKPEDTAVYYCAADDQVGQEDDYWGQGTQVTVSS”, the “polyreactivity (PSR sort gate)” value is reported as “low polyreactivity”.
In the case of “QVQLLESGGGLVQAGGSLRLSCAASGNTLRYNVMGWYRQAPGKERELFAAISGGGSTSYADSVKGRFTISRDNAKNTVYLQMNSLKPEDTAVYYCAKRSFVGGRGRDSDYRGQGTQVTVSS”, the “polyreactivity (PSR sort gate)” value is reported as “low polyreactivity”.
In the case of “QVQLLESGGGLVQAGGSLRLSCAASGRIFPRYAMGWYRQAPGKERELVASITRRGGSTYYADSVKGRFTISRDNAKNTVYLQMNSLKPEDTAVYYCNALPRAQSYELYNYWGQGTQVTVSS”, the “polyreactivity (PSR sort gate)” value is reported as “high polyreactivity”.
In the case of “QVQLLESGGGLVQAGGSLRLSCAASGRIFYVNAMGWYRQSPGKERELVAGIDDGVTTYYADSVKGRFTISRDNAKNTVYLLMNRLKPEDTAVYYCAAETSTNPEAYEYWGQGTQVTVSS”, the “polyreactivity (PSR sort gate)” value is reported as “low polyreactivity”.
In the case of “QVQLLESGGGLVQAGGSLRLSCAASGRTFVSYDMGWDRQAPGKEREVVAAITYSGGASTYYADSVKGRFTISRDYAKKTGYFQMNSLIPEDTAVYYCATDFSLSFELDYWGQGTQVTVSS”, the “polyreactivity (PSR sort gate)” value is reported as “low polyreactivity”.
For “QVQLLESGGGLVQAGGSLRLSCAASGRTFWAYAMGWYRQAPGKERELVAAIDGGDGSTYYADSVKGRFTISRDYAKNTVYLQMNSLKPEDTAVYYCAAETPSGYYPQQYDYYLGQGTQVTVSS”, the “polyreactivity (PSR sort gate)” value was “high polyreactivity”.
For “QVQLLESGGGLVQAGGSLRLSCAASGSIFGGNARGWSRQAPGKERELVAAITYSGGSTYYADSVKGRFTISRDNAKNTVYLQMNSLKPEDTAVYYCNADGVVTWYDYWGQGTQVTVSS”, the “polyreactivity (PSR sort gate)” value was “low polyreactivity”.
In the case of “QVQLLESGGGLVQAGGSLRLSCAASGSIFGYYAMGWYRQAPGKERELVAAISVNGGRTYYADSVKWRFTISRDIAKNTVYLQMNMLKPEDTAVSYCAAELVDFITFRGDFYYWGQGTEVTVSS”, the “polyreactivity (PSR sort gate)” value is reported as “high polyreactivity”.
With “QVQLLESGGGLVQAGGSLRLSCAASGSIFLTYAMGWYRQAPGKERELVAAISSSGGSTYYADSVKGRFTISRDNSKNTVYLQMNSLKPEVTAVYYCNAAYHFRRTLGRDHWGQGTEVTVSS” the “polyreactivity (PSR sort gate)” value was “low polyreactivity”.
With “QVQLLESGGGLVQAGGSLRLSCAASGSIFRANAMGWYRQAPGKERELVAAITNGGRTNYADSVKGRFTISRDNAKNTVYLQMNSLKPEDTAVYYCAKDIYQHAKRRYDYWGQGTQVTVSS” the “polyreactivity (PSR sort gate)” value was “low polyreactivity”.
With “QVQLLESGGGLVQAGGSLRLSCAASGSIFRGYAMGWYRQAPGKERELVAGIRGSDGSTYYADSVKGRFTISRDNAKNTVYLQMNSLKPEDTAVYYCAADRRYLDRDKHRYGYWGQGTQVTVSS” the “polyreactivity (PSR sort gate)” value was “low polyreactivity”.
For “QVQLLESGGGLVQAGGSLRLSCAASGSIFVINVMGWYRQAPRKDRELVATITGGRSTKYADSVNGRFTISRDNAKNTVYLQMNSLKPEDTAVYYCNIQSKSRGVHDPSGYDYWGQGTQVTVSS”, the “polyreactivity (PSR sort gate)” value was “low polyreactivity”.
With “QVQLLESGGGLVQAGGSLRLSCAASGSIFWYNAMGWYRQAPGKERELVATISSRGDGTYYADSVKGRFTISRDNAKNTVYLQMNSLKPEDTAVYYCNKYRQQGWEFDYWGQGTQVTVSS” the “polyreactivity (PSR sort gate)” value was “high polyreactivity”.
With “QVQLLESGGGLVQAGGSLRLSCAASGSTFKKNAMGWYRQAPGKETELVAAISGIGTRTSYADSLKGRFTISRDNAKNTVYLQMNRLKPEDTAVYYCAARYYGFPSTLKYDYWGQGTQVTVSS” the “polyreactivity (PSR sort gate)” value was “high polyreactivity”.
In the case of “QVQLLESGGGLVQAGGSLRLSCAASGSTFYYYAMGWYRQAPGKERELVAAITSGGRTYYADSQKGRFTNSRDNAKNTVYLQMNSLKPEDTAVYYSNKRWTIWGYDYWAQGTQVTVSS”, the “polyreactivity (PSR sort gate)” value is reported as “high polyreactivity”.
